Laboratory results reported in publication PMC10855774, “Role of Spexin in White Adipose Tissue Thermogenesis under Basal and Cold-Stimulated Conditions” (International Journal of Molecular Sciences, 2024).

Legend:
[1] = Adipose tissue depot mass percentage; assay type: in vivo, mice; conditions: SPX 29 µg/kg/day ten days, cold (4 °C); SPX-C relative to CTR and CTR-C; C × S p < 0.05
Protocol: (§1) Normal adult male C57BL/6 mice (four months of age) were kept in a temperature-controlled environment (20–22 °C and a fixed 12 h light/12 h dark cycle; lights on at 07:00 h) and fed ad libitum with Purina commercial rat/mouse chow (Ganave, Buenos Aires, Argentina, L0723/1). Mice were injected with SPX or PBS (29 µg/kg/day, Tocris, Bristol, UK) for ten days (the SPX and CTR groups, respectively). On the third day of the protocol, each group was subdivided into two other groups: one exposed to cold (4 °C, CTR-C and SPX-C, n = 12 mice for each group) and another one housed at RT (CTR and SPX, n = 15 mice for each group) (Figure 1). Food intake and body weight were measured every day. On the experimental day (day 10), the mice were euthanized under non-fasting conditions (08:00 to 09:00 h), and their trunk blood was collected; plasma samples were then frozen (–80 °C) until the metabolite measurement. Inguinal AT (IAT, subcutaneous depot), epididymal AT (EAT, visceral depot), and brown AT (BAT, subcutaneous depot) were aseptically dissected and weighed. These depots were kept at –80 °C for further procedures. Animals were euthanized according to protocols for animal use, in agreement with the NIH guidelines for the care and use of experimental animals. All experiments were approved by our Institutional Animal Care Committee (Approval code: 6NE-2023).

[2] = system: ucp1; assay: UCP1 immunohistochemistry of EAT and IAT; assay type: in vivo, mice; conditions: SPX groups vs. CTR groups; representative of three experiments
Protocol: as §1, with “6NE-2023). […]” for “6NE-2023).”

[3] = system: cox8b; assay: cox8b mRNA expression in AT depots (qRT-PCR); assay type: in vivo, mice; conditions: cold, SPX-C vs. CTR-C, C × S p < 0.001
Protocol: as §1
(§2) Total RNA was isolated from cells by the Trizol extraction method (Invitrogen, Life Technology, Waltham, MA, USA) and reverse-transcribed using random primers (250 ng) and RevertAid Reverse Transcriptase (200 U/µL, Thermo Scientific, Waltham, MA, USA). […] The expression levels were analyzed for β-actin (βactin, […] gene), Uncoupling Protein 1 (ucp1), proliferator-activated receptor gamma coactivator-1 alpha (pgc1α), cytochrome-c oxidase subunit 8b (cox8b), galanin receptors 2 and 3 (galr2 and galr3, respectively), and Spexin (spx). […] The relative changes in the expression level of each gene (ΔΔCt) were calculated by the ΔCt method.

[4] = system: beige precursors (PDGFRα+; EBF2+); assay: Beige precursors (PDGFRα+; EBF2+) in the SVF by flow cytometry; assay type: in vivo, mice; conditions: SPX for 3 days prior to cold exposure; n = 4, t-test
Protocol: Fresh EAT pads were dissected, weighed, and digested with collagenase, as previously reported. Briefly, fat tissue was minced and digested using 1 mg/mL of the collagenase solution in DMEM (at 37 °C for 40–60 min). After centrifugation (1000 rpm for 15 min), the SVF pellets were filtered (in a 50-µm-mesh nylon cloth) and washed with DMEM (x3). SVF cells were then resuspended in DMEM supplemented with 10% (v/v) FBS, HEPES ([…]), 100 IU/mL of penicillin, and 100 µg/mL of streptomycin (basal medium) and reserved for the flow cytometry protocol.
The SVF was prepared as reported above and counted and filtered through a 70-μM cell strainer. To block unspecific binding, the cells were resuspended in 10% inactivated FBS in FACS buffer (1% BSA in PBS) for 10 min. Then, the cells were incubated with the surface antibody anti-Pdgfrα (CD140a)-PE/Cy7 (1:200, BioLegend, San Diego, CA, USA) and washed twice with FACS buffer, followed by centrifugation (300× g, 5 min). Fixation was performed with 2% paraformaldehyde in PBS for 20 min at room temperature. After washing, the cells were subjected to permeabilization with 0.1 % Triton X100 in PBS for 15 min at room temperature. […] The samples were analyzed on a FACS Calibur flow cytometer (BD bioscience, Franklin Lakes, NJ, USA). […]

[5] = system: spx; assay: spx mRNA expression in AT depots (qRT-PCR); assay type: in vivo, mice
Protocol: as §1, §2

[6] = system: galr2; assay: galr2 mRNA expression in AT depots (qRT-PCR); assay type: in vivo, mice; conditions: RT and cold
Protocol: as §1, §2

[7] = system: 3T3-L1 adipocytes; conditions: in vitro; cited from earlier work
Excerpt: (§3) Beige adipocytes may be generated through two different mechanisms: adipogenesis, de novo, from precursor stem cells, and the transdifferentiation process, which involves the conversion/reprogramming of white adipocytes. Regarding the former, different studies have shown the presence of different adipocyte precursors that have different thermogenic capacities when differentiated in vitro [22]. Other studies have observed that PDGFRα+ cells are bipotential precursors, being able to differentiate into either white or beige adipocytes depending on the stimulus. Then, only PDGFRα+ and EBF2+ cell ...

[8] = system: preadipocytes; conditions: cited from earlier work
Excerpt: as §3

B1: Spexin (peptide, UniProt Q9BT56 27-116, looked up)
Spexin: APQRLLERRNWTPQAMLYLKGAQGRRFISDQSRRKDLSDRPLPERRSPNPQLLTIPEAATILLASLQKSPEDEEKNFDQTRFLEDSLLNW
modifications: Spexin
notes: novel adipokine, a peptide of 14 amino acids of the galanin family; purchased from Tocris
BAT mass percentage [1]: intermediate value | UCP1 expression by immunohistochemistry, EAT and IAT [2]: lower than in the CTR groups | cox8b mRNA expression in EAT [3]: inhibitory effect of SPX under cold conditions | cox8b mRNA expression in IAT [3]: inhibitory effect of SPX under cold conditions | cox8b mRNA expression in BAT ([3]; Supplementary Figure S2c): inhibitory effect of SPX under cold conditions | abundance (%) of beige precursors in the SVF of EAT [4]: no changes were observed in either of the two AT depots studied | abundance (%) of beige precursors in the SVF of IAT [4]: no changes were observed in either of the two AT depots studied | spx mRNA expression in EAT ([5]; RT and cold): No changes | spx mRNA expression in BAT ([5]; RT and cold, Supplementary Figure S3): No changes | spx mRNA expression in IAT ([5]; cold conditions, C × S p < 0.001): lower spx expression than CTR mice | galr2 mRNA expression in EAT ([6]; S p < 0.01): decreased in both groups treated with SPX | galr2 mRNA expression in IAT ([6]; S p < 0.01): decreased in both groups treated with SPX | galr2 mRNA expression in BAT ([6]; Supplementary Figure S3): no differences were found | terminal differentiation of white 3T3-L1 adipocytes [7]: inhibits | viability or proliferation of preadipocytes [8]: does not affect
